The values that follow come from article PMC8264439.

Read-outs that look alike come from different tables or passages of the source. Where only a bound is given, the exact number is not on record here.

Holding throughout (assay): SEC; analytical Superdex 200 increase 10/300 GL; 180 μM protein in 50 μL injected; 20 mM Hepes (pH 7.5); 0.75 ml/min; 25°C; dimer to monomers
For orientation: Size exclusion chromatography separates by hydrodynamic size, large species first.

Assay [1] has as its target SARS-CoV-2 3CLpro C145S variant (SARS-CoV-2).
Assay [2] has the same target. The source holds these as a separate data set.
Assay [3] has as its target SARS-CoV-2 3CLpro H41D variant (SARS-CoV-2).
Assay [4] deals with SARS-CoV-2 3CLpro H41E variant (SARS-CoV-2).
Assay [5] concerns the target SARS-CoV-2 3CLpro C145A variant (SARS-CoV-2).
Assay [6] shares this target. The source holds these as a separate data set.
The target in assay [7] is SARS-CoV-2 3CLpro H41A variant (SARS-CoV-2).

As a reminder, the stoichiometry N is the number of molecules, sites or subunits per partner or assembly. Regarding “SARS-CoV-2 3CLpro C145S variant (enzyme)”, the results for the stoichiometry N in assay [1] and in assay [2] were more than 2 and 2, respectively.

Turning to SARS-CoV-2 3CLpro H41D variant (enzyme), the stoichiometry N in assay [3] turned out to be 2.

In the case of SARS-CoV-2 3CLpro H41E variant (enzyme), the stoichiometry N in assay [4] is 2.

“SARS-CoV-2 3CLpro C145A variant (enzyme)”: the stoichiometry N was 2 in assay [5] and more than 2 in assay [6].

The substance SARS-CoV-2 3CLpro H41A variant (enzyme) came in with a stoichiometry N in assay [7] of 2.
